Experiment: yeast display, Sf9 membrane polyspecificity reagent, FACS + sequencing; frameworks hold sequencing errors
Method in brief: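 Nanobodies from a synthetic yeast display library (Saccharomyces cerevisiae BJ5465), induced 36–48 hours with galactose, were stained 1 hour at 4 °C with 10% biotinylated, detergent-solubilized Sf9 membrane reagent, enriched on streptavidin microbeads, then FACS-sorted. Anti-HA (expression) and streptavidin (reagent binding) fluorescence set low and high (top ~1%) gates. Polyreactivity labels come from the gate of origin. Genes were colony-PCR amplified, MiSeq 2 × 250 sequenced and filtered by CDR length.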

Sequence	polyreactivity (PSR sort gate)
QVQLVESGGGLVQAGGSLRLICAASGNIFYRYAMGWYRQAPGKERELVAAISGNSGNTYYADSVKGRFTISRDNAKNTVYLQMNSLKPEDTAVYYCNARVVVRRDYWGQGTQVTVSS	high polyreactivity
QVQLVESGGGLVQAGGSLRLSCAASGRISAYAMGWYRQAPGKERELVAAISSRGGRTYYADSVKGRFTISRDNAKTTVYLQMNSLKPEDTAVYYCNALRPWEFDHWGHGTQVTVSS	high polyreactivity
QVQLVESGGGLLQAGGSLRLSCAASGRTFYRYAMGWYRQAPGKERELVAAITWSGGSTYYADSVKGRFTTSRDNAKNTVYLQMNSLKPEDTAVYYCARRLYPYRPTAYDYWGQGTQVTVSS	low polyreactivity
QVQLVESGGGLVQAGGSLRLSCAASGSILVHYSMGWYRQAPGKERELVAAISRGGSTNYADSVKGRFTISRDNAKNTVYLQMNSLKPEDTAVYYCAARRPWGEYYWGQGTQVTVSS	low polyreactivity
QVQLVESGGGLVQAGGSLRLSCAASGRIFALYAMGGYRQAPGKERELVAAISIRAGSTYYADSAKGRFTISRDNAKNTVYLQMNSLKPEDTAVYYCATKGWVSTSYYYRPYGYWGQGTQVTVSS	high polyreactivity
QVQLVESGGGLVQAGGSLRISCAASGRTVAIYAMGWYIKAPGKEREFVAAISWSGGDTYYADSVKGRFTISRDNAKNTVYLQMNSLKPVDPAVYYCAARDNDYEGRDLQYELDYWGQGTQVTVSS	low polyreactivity
QLQLVESFTGLVQAGGSLRLSCAASVPTFASYAMGWSRQAPGKERELVAVITRGVRTYYADSVKGRITISRDNAMNTVYLQMNSLKPEDTAVYDCAKERYNANYDTSLYDYWGQGTQGTVSS	low polyreactivity
QVQLVESGGGLVQAGGSLRISCAASGLTFYRYAMGWYRQAPGKERELVAAIRVSGNTYYADSVKGRFTISRDNAKNTVYLEMNSLKPEDTAVYYFAAKPYYFYGMDYWGQGTQVTVSS	high polyreactivity
QVQLVESGGGLVQAGGSLRLTCAASGRIFRKYAMGWYRQAPGKERELVAAISNGGSTNYADSVKGRFTISRDNAKNTVYLQMNSLKPEDTAVYYCAASYRIYRGDSTGFGYWGQGTQVTVSS	high polyreactivity
QVQLVESGGGLVQAGGSLRLSCAASGSTVGHYAMGWYRQAPGKERELVAAISVSGGSTYYADSVKGRFTISRDHAKNTVYLQMNSLKPEDTAVYYCAREYAHLSFLSTSSDYWGQGTQVTVSS	low polyreactivity
QVQLVESAGGLVKAGGSLRLSCAAYGSTFSYYTMGWYRQAPGKERELVAAITRRGDSTYADSVKGRFTISRDNAKNTVYLQMNSLKPEDTAVYYCAADASVGVSGMDYWGQGTQVTVSS	low polyreactivity
QVQLVESGGGLVQAGGSLRLSCAASGITFRWYAMGWYRQAPGKERELVALIDGRGASTYADSVKGRFTISRDNAKNTVYLQMNSLKPEDTAVYYCAVAQVRVTYLWVRKFYYWGQGTQVTVSS	high polyreactivity
QVQLVESGGGLVQAGGSLRLSCAASGFIFVPYAMGWYRQAPGKERELVAAISSGGSTYYADSVKGRFTISRDNAKNTVYLQMNSLKPEDTAVYYCNKRYYLYQYRYDYWGQGTQVTVSS	low polyreactivity
QVQLVESGGGLVQAGGSLRLSCAASGFIFKPYAMGWYRQAPGKERELVAAITVNGGTTYYADSVKGRFTISRDNAKNTVYLQMNSLKPEDTAVYYCNRGRPGGPSWYHYDYWGQGTQGTVSS	high polyreactivity
QVQLVESGGGLVQAGGSLRLICAASGFTFGEYAMGWYRKAPGKERELVAGISWSGGGTYYADSVKGRFTISRDTAKNTVYLQMNCLKPEDTAVYYCAKAGYYFFQQWQVDYWGQGTQVTVSS	low polyreactivity
QVQLVESGGGLVQAGGSLRLSCAASGSTFVYNAMGWYRQAPGKERELVAAISTGGSTYYADSVKGRFTISRDNAKNTVYLQMNSLKPEDNAVYYCAAKQRTTLYDYWGQGTQVTVSS	high polyreactivity

Sequence	polyreactivity (PSR sort gate)
QVQLVESGGGLVQAAGSLRLSCAASGSIFVRNAMGWYRQAPGKEREFVAAISWRGGTYYADSVKGRFTISRDNAKNTVYLQMNSLKPEDSAVYYCAARLYPTPGNGALGKTAWVYYWGQGTQVTVSS	low polyreactivity
QVQLVESGGGLVQAGGSLRLSCHASGFIFGYKAMGWYRQAPGKERELVAAISSGGSTYYADSVKGRFTISRDNAKYTVYLQMKSLKPEDTAVFYCATVFVVLPPTRFDSWGQGTQVTVSS	low polyreactivity
QVQLVESGGGLVQAGGSLRLSCAASGRTFYRNAMGWYRQAPGKERELVAAISQRGGRTYYADSVKGRFTISRDNAKNSVYLQMNSLKPEDTAVYYCAASPIYPVYRRHGYWGQGTQVTVSS	high polyreactivity
QVQLVESGGGLVQAGGSLRLSCAASGSTFTSYAMGWYRQAPGKERELVAAIRYRGDGTYYADSVKGRFTISRDNAKNTVYLQMNSLKPEDTAVYYCAADSRVYRGGYIYRYGYWGQGTQVTVSS	low polyreactivity
QVQLVESGGGIVQAGGSLRLICAASGFIFEFNVMGWYRQSPGKERQLVAAISRSGGSTYYADSVKGRFTISRDNAKNTVYLQMISLKPEDSAVYYCAARSYRSGTHGYNYWGQGTQVTVSS	high polyreactivity
QVQLVESGGGLVQAGGSLRLSCAASGSIFDWYAMGWYRQAPGKEGELVAAISSGDSTYYADSVKGRFTISRDNAKKTVYLQMNSLKPEDTAVYYCAAVTKLSGIRYNYWGQGTQVTVSS	low polyreactivity
QVQLVESGGGLVQAGGSLRLSCAASGSTIHDYAMGWYRQAPGKEREFVAAISNSGGSTYYADSLKGRFTISRDNAKNTVYLQMNSLKPEDTAVYYCAADGRWYWDYEYWGQGTQVTVSS	low polyreactivity
QVQLVESGGGLVQAGGSLRLSCAASGRIWGYAMGLYRQAPGKARELVATITYNSGRTYYADSVKGRFTISRDNAKNTVYLQMNSLKPEDTAVYYCNKDFDGRFDYWGQGTQVNVSS	high polyreactivity
QVQLVESGGGLVQAGGSLRLSCAASGSTLYYNAMGWYRQAPGKERELVAAITSGGSTSYADSVKGRFTISRDNAKNTVYLQMNSLKPEDTAVYYCAAVFYRRFDYWGQGTQVTVSS	low polyreactivity
QVQLVESGGGLVQAGGSLRLSCAASGFTFPSYAMGWYRQAPGKERELVAAISQRGGSTYYADSVKGRFTISRDNAKNTVYLQMNSLKPEDTAVYYCAALAPRTGRPTYGYWGQGTQVTVSS	low polyreactivity
QVQLVESGGGLVQAGGSLRLSCAASGRTFWWYAMGWYRQAPGKERELVAAITWSTGITFYADSVKGRFTISRDNAKNTVYLQMNILKPEDTAVYYCAADTGTFFGGFDYWGQGTQVTVSS	high polyreactivity
QVQLVESGGGLVQAGGSLRLSCAASGTLYINVMGWYRQAPGKERELVAAISSNGARTYYADSVKGRFTISRDNAKNTVYLQMNSLKPEDTAVYYCNRVASVRARDYDYWGQGTQVTVSS	high polyreactivity
QVQLVESGGGLLQAGGSLRLSCAASGNIFTYYAMGWYRQAPGKERDLVAAIRWRSGSTYYADSVKGRFTISRDNAKNTVYLQMNSLKPEDTAVYYCADDGTPYEYDYWGQGTQVTVSS	low polyreactivity
QVQLVESGGGLVQAGGSLRLICAASGSIFDTYAMGWYRQAPGKERELLATISWSGDSTYYADSVKGRFTISRDNAKNTVYLQMNCLKPEDTAVYYCAADVGQVSDHEDYDYWGQGTQVTVSS	low polyreactivity
PVQLVESGGGLVQAGGSLRLSFAASGRTFWVYAMGWYRQAPGKERELVAAINRRGGGTYYADSVKGRFTISRDNAKNTVYLQMNSLKPEDTPVYYCAAVTRNQGSYRYYYWGQGTQVTVSS	high polyreactivity
QVQLVESGGGLVQAGGSLSLSCAASGRTFAPYAMGWYRQAPGKEREFVAGITWSSSSTYADSVKGRFTISRDNAKITVYFQMNSLKPEDPAVYYCAASHAKGGNRHYYWGQGTQVTVSS	high polyreactivity

— the nanobody polyreactivity screen of Harvey et al. (2022)
